Reference: publication PMC7668254

Target: T1, DROSHA fragment D3;DGCR8 fragment G1 (human;human, UniProt Q9NRR4;Q8WYQ5 390-1365;728-750, |)
T1 sequence 1: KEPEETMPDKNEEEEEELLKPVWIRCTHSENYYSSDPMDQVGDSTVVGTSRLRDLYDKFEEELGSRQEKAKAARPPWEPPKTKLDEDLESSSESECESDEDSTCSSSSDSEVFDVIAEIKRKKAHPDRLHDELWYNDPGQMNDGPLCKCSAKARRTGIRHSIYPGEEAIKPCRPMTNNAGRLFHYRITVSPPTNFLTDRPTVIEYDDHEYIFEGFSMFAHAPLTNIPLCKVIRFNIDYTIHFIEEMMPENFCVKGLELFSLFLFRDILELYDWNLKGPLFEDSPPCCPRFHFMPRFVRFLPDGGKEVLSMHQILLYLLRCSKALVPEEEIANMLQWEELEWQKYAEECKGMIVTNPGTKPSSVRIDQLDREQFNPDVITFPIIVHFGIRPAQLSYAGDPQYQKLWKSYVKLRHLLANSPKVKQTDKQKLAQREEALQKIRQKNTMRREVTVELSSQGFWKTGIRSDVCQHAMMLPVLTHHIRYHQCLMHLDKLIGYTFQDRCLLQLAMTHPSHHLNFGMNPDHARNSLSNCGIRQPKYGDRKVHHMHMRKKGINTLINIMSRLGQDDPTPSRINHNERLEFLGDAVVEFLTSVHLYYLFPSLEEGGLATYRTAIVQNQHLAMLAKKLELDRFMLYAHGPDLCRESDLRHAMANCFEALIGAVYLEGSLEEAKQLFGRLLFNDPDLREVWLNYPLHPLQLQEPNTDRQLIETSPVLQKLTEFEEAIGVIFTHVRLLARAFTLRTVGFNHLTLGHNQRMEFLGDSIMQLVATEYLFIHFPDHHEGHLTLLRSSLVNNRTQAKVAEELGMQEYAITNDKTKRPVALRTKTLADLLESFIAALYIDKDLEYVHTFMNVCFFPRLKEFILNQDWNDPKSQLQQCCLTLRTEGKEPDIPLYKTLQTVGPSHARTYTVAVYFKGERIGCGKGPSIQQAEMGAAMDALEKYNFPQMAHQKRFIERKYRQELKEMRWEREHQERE
T1 sequence 2: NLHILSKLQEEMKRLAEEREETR
Assay: EMSA; 2 mM EDTA; 1.5 pmol RNA, 5-25 pmol D3-G1 in 10 uL; 50 mM Tris-HCl pH 7.5, 150 mM NaCl, 0.2 mg/ml BSA, 10% glycerol, 2 mM EDTA, 1 mM DTT; on ice 60 min; 4% native PAGE in 1x TBE at 4 C
Settings: protein: recombinant;recombinant; tags: ;; copies: 1;2; hairpin

B1: Short pri-mir-146a_C (structured_RNA)
RNA: GGAGAACUGAAUUCCAUGGGUUGUGUCAGUGUCAGACCUCUGAAAUUCAGUUCUUCAG
- binding result: binds
